Data from paper PMC12372851.

Target: 3Flag-Lef1 (zebrafish) (UniProt Q9W7C0)
Assay: EMSA
Conditions: 100 mM Hepes pH 7.5, 100 mM NaCl, 50 mM KCl, 1 mM DTT, 1 mM EDTA, 5% glycerol, 30 min at 25 °C

UniProt Q9W7C0, sequence (Q9W7C0 entry or part of it): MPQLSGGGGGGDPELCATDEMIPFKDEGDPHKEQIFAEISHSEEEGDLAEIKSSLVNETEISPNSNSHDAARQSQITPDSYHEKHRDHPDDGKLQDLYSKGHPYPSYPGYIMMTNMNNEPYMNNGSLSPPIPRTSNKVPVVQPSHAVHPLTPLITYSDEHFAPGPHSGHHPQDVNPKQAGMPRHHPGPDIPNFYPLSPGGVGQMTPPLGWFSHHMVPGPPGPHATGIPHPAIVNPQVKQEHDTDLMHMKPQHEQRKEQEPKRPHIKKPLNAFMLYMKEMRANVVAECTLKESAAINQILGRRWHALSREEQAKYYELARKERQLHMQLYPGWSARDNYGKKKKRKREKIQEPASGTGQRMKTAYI

Q: “CACCACTGATAAAAACTATTAAAGATCAGTCTGGGAGTCACTACTTTACTACTTGGTTTCATCAAAGTATTAAAAAAAGTGATGCGCTGCCTTCTTTAAATGCGTTCAC (double strand) [eya2 promoter WT EMSA probe]” was tested. Which binding did it give?
A: binds
